T1: MICA*008 on MEL-JUSO cells (human, UniProt Q29983 24-317)
T1 chain: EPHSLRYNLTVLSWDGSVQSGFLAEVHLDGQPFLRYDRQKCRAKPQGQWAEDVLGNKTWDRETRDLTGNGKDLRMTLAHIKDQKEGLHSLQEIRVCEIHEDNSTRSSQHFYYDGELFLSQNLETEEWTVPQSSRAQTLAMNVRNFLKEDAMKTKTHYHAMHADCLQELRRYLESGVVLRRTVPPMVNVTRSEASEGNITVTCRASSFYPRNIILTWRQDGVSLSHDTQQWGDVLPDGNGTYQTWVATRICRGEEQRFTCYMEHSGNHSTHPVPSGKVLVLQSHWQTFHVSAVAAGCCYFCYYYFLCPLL

T2: huMICA*002 alpha 3-his (human)
T2 construct: whole construct entry: GS, alpha 3 domain, GNS, His8; also called MICA002.His; MICA*002 alpha3 construct
T2 chain: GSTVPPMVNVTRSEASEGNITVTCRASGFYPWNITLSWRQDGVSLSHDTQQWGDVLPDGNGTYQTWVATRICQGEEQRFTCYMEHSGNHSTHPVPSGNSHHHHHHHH

T3: huMICA*004 alpha 3-his (human)
T3 construct: whole construct entry: GS, alpha 3 domain, GNS, His8; also called MICA004.His; MICA*004 alpha3 construct
T3 chain: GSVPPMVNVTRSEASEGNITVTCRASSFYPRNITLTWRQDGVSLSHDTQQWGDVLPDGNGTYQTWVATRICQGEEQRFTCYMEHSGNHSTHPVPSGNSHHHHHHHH

T4: huMICA*008 alpha 3-his (human)
T4 construct: whole construct entry: GS, alpha 3 domain (Thr204-Ser297), GNS, His8; also the construct of the FPOP experiment; also called MICA008.His; MICA*008 alpha3 construct
T4 chain: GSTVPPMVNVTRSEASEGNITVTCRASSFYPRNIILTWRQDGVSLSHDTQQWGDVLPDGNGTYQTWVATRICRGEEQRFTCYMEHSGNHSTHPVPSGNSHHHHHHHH

T5: huMICB*005 alpha 3-his (human)
T5 construct: whole construct entry: GS, alpha 3 domain, GNS, His8; also called MICB005.His; MICB*005 alpha3 construct
T5 chain: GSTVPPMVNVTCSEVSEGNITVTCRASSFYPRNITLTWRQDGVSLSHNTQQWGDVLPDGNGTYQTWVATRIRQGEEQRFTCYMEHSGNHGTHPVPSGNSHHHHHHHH

B1: 1D5v9 (antibody, IgG1, V domains shown)
VH: EIQLVQSGAEVKKPGASVKVSCKASGYAFTSQNIYWVRQAPGQGLEWIGYIEPYNVVPMYNPKFKGRATLTVDKSTSTAYMELRSLRSDDTAVYYCARSGSSNFDYWGQGTLVTVSS
VL: DIQLTQSPSSLSASVGDRVTITCSASSSISSHYLHWYQQKPGKSPKLLIYRTSNLASGVPSRFSGSGSGTDYTLTISSLQPEDFATYYCQQGSSLPLTFGQGTKVEIK
notes: humanized variant of 1D5
B2: 1D5v13 (antibody, IgG1, V domains shown)
VH: EIQLVQSGAEVKKPGASVKVSCKASGYAFTSQNIYWVRQAPGQGLEWIGYIEPYNVVPMYNPKFKGRATLTVDKSTSTAYMELRSLRSDDTAVYYCARSGSSNFDYWGQGTLVTVSS
VL: DIQMTQSPSSLSASVGDRVTITCSASSSISSHYLHWYQQKPGKAPKLLIYRTSNLASGVPSRFSGSGSGTDFTLTISSLQPEDFATYYCQQGSSLPLTFGQGTKVEIK
notes: humanized variant of 1D5
B3: 1D5v10 (antibody, IgG1, V domains shown)
VH: EVQLVQSGAEVKKPGASVKVSCKASGYAFTSQNIYWVRQAPGQGLEWMGYIEPYNVVPMYNPKFKGRVTMTTDTSTSTAYMELRSLRSDDTAVYYCARSGSSNFDYWGQGTLVTVSS
VL: DIQLTQSPSSLSASVGDRVTITCSASSSISSHYLHWYQQKPGKSPKLLIYRTSNLASGVPSRFSGSGSGTDYTLTISSLQPEDFATYYCQQGSSLPLTFGQGTKVEIK
notes: humanized variant of 1D5
B4: 1D5v18 (antibody, IgG1, V domains shown)
VH: EIQLVQSGAEVKKPGASVKVSCKASGYAFTSQNIYWVRQAPGQGLEWIGYIEPYNVVPMYNPKFKGRATLTVDKSTSTAYLELSSLRSEDTAVYYCARSGSSNFDYWGQGTLVTVSS
VL: DIQLTQSPSSLSASVGDRVTITCSASSSISSHYLHWYQQKPGKSPKLLIYRTSNLASGVPSRFSGSGSGTDFTLTISSLQPEDFATYYCQQGSSLPLTFGQGTKVEIK
notes: humanized variant of 1D5
B5: 1D5v20 (antibody, IgG1, V domains shown)
VH: EIQLVQSGAEVKKPGASVKVSCKASGYAFTSQNIYWVRQAPGQGLEWIGYIEPYNVVPMYNPKFKGRVTLTVDKSTSTAYLELSSLRSEDTAVYYCARSGSSNFDYWGQGTLVTVSS
VL: DIQLTQSPSSLSASVGDRVTITCSASSSISSHYLHWYQQKPGKSPKLLIYRTSNLASGVPSRFSGSGSGTDYTLTISSLQPEDFATYYCQQGSSLPLTFGQGTKVEIK
notes: humanized variant of 1D5
B6: 1D5v19 (antibody, IgG1, V domains shown)
VH: EVQLVQSGAEVKKPGASVKVSCKASGYAFTSQNIYWVRQAPGQGLEWIGYIEPYNVVPMYNPKFKGRATLTVDKSTSTAYLELSSLRSEDTAVYYCARSGSSNFDYWGQGTLVTVSS
VL: DIQLTQSPSSLSASVGDRVTITCSASSSISSHYLHWYQQKPGKSPKLLIYRTSNLASGVPSRFSGSGSGTDYTLTISSLQPEDFATYYCQQGSSLPLTFGQGTKVEIK
notes: humanized variant of 1D5
B7: 1D5v12 (antibody, IgG1, V domains shown)
VH: EVQLVQSGAEVKKPGASVKVSCKASGYAFTSQNIYWVRQAPGQGLEWIGYIEPYNVVPMYNPKFKGRVTITRDTSTSTAYLELSSLRSEDTAVYYCARSGSSNFDYWGQGTLVTVSS
VL: DIQLTQSPSSLSASVGDRVTITCSASSSISSHYLHWYQQKPGKSPKLLIYRTSNLASGVPSRFSGSGSGTDYTLTISSLQPEDFATYYCQQGSSLPLTFGQGTKVEIK
notes: humanized variant of 1D5
B8: 1D5v17 (antibody, IgG1, V domains shown)
VH: EIQLVQSGAEVKKPGASVKVSCKASGYAFTSQNIYWVRQAPGQGLEWIGYIEPYNVVPMYNPKFKGRATLTVDKSTSTAYLELSSLRSEDTAVYYCARSGSSNFDYWGQGTLVTVSS
VL: DIQMTQSPSSLSASVGDRVTITCSASSSISSHYLHWYQQKPGKSPKLLIYRTSNLASGVPSRFSGSGSGTDYTLTISSLQPEDFATYYCQQGSSLPLTFGQGTKVEIK
notes: humanized variant of 1D5
B9: 1D5v15 (antibody, IgG1, V domains shown)
VH: EIQLVQSGAEVKKPGASVKVSCKASGYAFTSQNIYWVRQAPGQGLEWIGYIEPYNVVPMYNPKFKGRATLTVDKSTSTAYLELSSLRSEDTAVYYCARSGSSNFDYWGQGTLVTVSS
VL: DIQMTQSPSSLSASVGDRVTITCSASSSISSHYLHWYQQKPGKAPKLLIYRTSNLASGVPSRFSGSGSGTDFTLTISSLQPEDFATYYCQQGSSLPLTFGQGTKVEIK
notes: humanized variant of 1D5
B10: 1D5v21 (antibody, IgG1, V domains shown)
VH: EIQLVQSGAEVKKPGASVKVSCKASGYAFTSQNIYWVRQAPGQGLEWIGYIEPYNVVPMYNPKFKGRATITVDKSTSTAYLELSSLRSEDTAVYYCARSGSSNFDYWGQGTLVTVSS
VL: DIQLTQSPSSLSASVGDRVTITCSASSSISSHYLHWYQQKPGKSPKLLIYRTSNLASGVPSRFSGSGSGTDYTLTISSLQPEDFATYYCQQGSSLPLTFGQGTKVEIK
notes: humanized variant of 1D5
B11: 1D5v22 (antibody, IgG1, V domains shown)
VH: EIQLVQSGAEVKKPGASVKVSCKASGYAFTSQNIYWVRQAPGQGLEWIGYIEPYNVVPMYNPKFKGRATLTRDKSTSTAYLELSSLRSEDTAVYYCARSGSSNFDYWGQGTLVTVSS
VL: DIQLTQSPSSLSASVGDRVTITCSASSSISSHYLHWYQQKPGKSPKLLIYRTSNLASGVPSRFSGSGSGTDYTLTISSLQPEDFATYYCQQGSSLPLTFGQGTKVEIK
notes: humanized variant of 1D5
B12: 1D5v16 (antibody, IgG1, V domains shown)
VH: EVQLVQSGAEVKKPGASVKVSCKASGYAFTSQNIYWVRQAPGQGLEWIGYIEPYNVVPMYNPKFKGRVTITRDTSTSTAYLELSSLRSEDTAVYYCARSGSSNFDYWGQGTLVTVSS
VL: DIQMTQSPSSLSASVGDRVTITCSASSSISSHYLHWYQQKPGKAPKLLIYRTSNLASGVPSRFSGSGSGTDFTLTISSLQPEDFATYYCQQGSSLPLTFGQGTKVEIK
notes: humanized variant of 1D5

How the values were obtained:
[1] = molecular target: T1, MICA*008 on MEL-JUSO cells; experiment: cell-based or functional assay
[2] = molecular target: MICA*004 on HCC1534 cells (human, UniProt Q29983 24-383); experiment: cell-based or functional assay
[3] = molecular target: MICB*005 on HCC1534 cells (human); experiment: cell-based or functional assay
huMICA*002 alpha 3-his = molecular target: T2, huMICA*002 alpha 3-his; experiment: SPR, Biacore 8K, antibody on Protein A chip
huMICA*004 alpha 3-his = molecular target: T3, huMICA*004 alpha 3-his; experiment: SPR, Biacore 8K, antibody on Protein A chip
huMICA*008 alpha 3-his = molecular target: T4, huMICA*008 alpha 3-his; experiment: SPR, Biacore 8K, antibody on Protein A chip
huMICB*005 alpha 3-his = molecular target: T5, huMICB*005 alpha 3-his; experiment: SPR, Biacore 8K, antibody on Protein A chip
For % Inhibition in this document: test concentration or dose not given here.

Binder | % Inhibition [1] [%] | % Inhibition [2] [%] | % Inhibition [3] [%] | Kd (huMICA*002 alpha 3-his) [nM] | Kd (huMICA*004 alpha 3-his) [nM] | Kd (huMICA*008 alpha 3-his) [nM] | Kd (huMICB*005 alpha 3-his) [nM]
B1 | 49 | 53 | 41 | 1.31 | 0.95 | 0.87 | 1.51
B2 | 51 | 49 | 43 | 1.2 | 0.91 | 0.85 | 1.48
B3 | 58 | 62 | 43 | 1.44 | 1.08 | 1.05 | 1.98
B4 | 64 | 47 | 41 | 1.04 | 0.79 | 0.75 | 1.41
B5 | 56 | 46 | 39 | 1.14 | 0.88 | 0.83 | 1.57
B6 | 57 | 44 | 40 | 1.16 | 0.88 | 0.83 | 1.51
B7 | 44 | 50 | 27 | 4.64 | 3.91 | 3.66 | 9.16
B8 | 68 | 52 | 50 | 0.91 | 0.68 | 0.64 | 1.01
B9 | 48 | 45 | 39 | 1.06 | 0.81 | 0.76 | 1.26
B10 | 62 | 55 | 25 | 1.35 | 1.08 | 0.99 | 1.98
B11 | 57 | 46 | 34 | 6.46 | 5.45 | 4.98 | 13.2
B12 | 51 | 50 | 51 | 4.09 | 3.42 | 3.21 | 8.37

Reference: US20200055939A1 (Genentech, published 2020)
